Data on one molecule can be found in patent US7595168B2, “Method of screening for substances useful for transdifferentiation of microglia into neurons” (Eisai R&D Management Co., Ltd., priority 2006, dated 2009).

For this assay, the system named is microglia. The assay is described as follows: Action of BMP on transdifferentiation of microglia into neurons; immunocytochemical marker quantification. Particulars: day 5 after enrichment; 100 ng/ml noggin in medium containing 70% FCS, 2 days. It is filed as cell-based, rat. As to the method: The cerebral cortex was isolated from newborn Wistar rats aged from 0 to 1 day (obtained from Shimizu Experimental Material Co. Ltd.) and cultured in an Eagle's minimum essential medium (EMEM) supplemented with 10% fetal calf serum (FCS) and […] insulin at 37° C. in an atmosphere of 5% CO2. After 14 to 16 days of incubation, microglia were isolated and prepared by the enriching procedure.
The cells were fixed with 4% paraformaldehyde and then reacted individually with an anti-CD11b antibody ([…], Chemicon International) or an anti-MAP2 antibody ([…], DakoCytomation) as a primary antibody and with Cy2-conjugated goat anti-mouse IgG (H+L) (Jackson ImmunoResearch) or Cy3-conjugated goat anti-rabbit IgG (H+L) (Jackson ImmunoResearch) as a secondary antibody. The CD11b is a marker for microglia and the MAP2 is a marker for neurons. […]
After immunostaining the cells, images (200× magnification) of 8 fields per case were randomly obtained using a fluorescent microscope and MataMorph software (Molecular Devices). The numbers of cells expressing individual markers were counted and the average rates to the total number of cells were used as data. […]
Quantification was carried out in the same manner as in Example 1.

B1: noggin: a BMP inhibitor (N6784), Sigma (protein, UniProt Q13253 28-232, looked up)
Noggin: QHYLHIRPAPSDNLPLVDLIEHPDPIFDPKEKDLNETLLRSLLGGHYDPGFMATSPPEDRPGGGGGAAGGAEDLAELDQLLRQRPSGAMPSEIKGLEFSEGLAQGKKQRLSKKLRRKLQMWLWSQTFCPVLYAWNDLGSRFWPRYVKVGSCFSKRSCSVPEGMVCKPSKSVHLTVLRWRCQRRGGQRCGWIPIQYPIISECKCSC
In the case of B1, the “effect on transdifferentiation of microglia into neurons by 70% serum” value is listed as “this transdifferentiation was suppressed”.
